In publication PMC9622777, “Eradication of tumors and development of anti-cancer immunity using STINGa targeted by pHLIP” (Frontiers in Oncology, 2022):
Where a SMILES comes first, the peptide text is derived from it. [ ]: non-standard residue; d: D form. The star is where a group is joined. X1 = CCn1nc(C)cc1C(=O)Nc1nc2cc(C(N)=O)cc(OC)c2n1C/C=C/Cn1c(NC(=O)c2cc(C)nn2CC)nc2cc(C(N)=O)cc(OCCC[N+]3(Cc4ccc(NC(=O)OCCS*)cc4)CCOCC3)c21

Tests used:
[1] = mouse, in vivo, iv
Experimental: (§1) For pharmacokinetics (PK), biodistribution, pH imaging studies and immunohistochemistry, 5x10^4 of CT26 cancer cells were injected SQ in 100 µl of growth medium into the right flank of female Balb/c mice and tumors were grown until they reached 150-200 mm^3 in volume. […] Animals were euthanized at 2, 4, 24, 48, 72 and 96 hours post-injection, blood was collected in K2 EDTA vacutainer blood collection tubes (BD), and necropsy was performed immediately after euthanization. Blood, tumors and major organs (kidney, liver, spleen, pancreas, lung, heart, large and small intestines, bone, muscle, brain) were collected, and imaged ex vivo immediately after necropsy. Blood (150 µl) was imaged in 96-well plate with black bottom and walls. […] The fluorescence at zero-time point was taken as 100% and fluorescence recorded at 2, 4, 24 and 48 hrs p.i. were calculated as a percentage of zero-time point signal. […]
(§2) The in vivo and ex vivo bright field and near-infrared fluorescent imaging was performed using a Stryker 1588 AIM endoscopic system with L10 AIM Light Source (808 nm excitation and collection of light in the range of approximately of 815 to 850 nm), and a 1588 AIM Camera using a 10 mm scope. […] The calculated total fluorescence intensity and total area of each organ were used to calculate the mean organ fluorescence.

CT26 tumor = details: mouse, in vivo
Experimental: as §1, §2

[2] = test system: tumor stroma and immune cells within CT26 tumors; assay: FACS analysis of uptake by tumor stroma and immune cells within CT26 tumors; details: mouse, in vivo, ip
Experimental: Animal studies on mice were conducted at the Charles River Discovery Service in compliance with the principles and procedures outlined by the National Institutes of Health for the care and use of animals. Uptake of Al647-pHLIP(Laa)-STINGa by tumor cells within CT26 tumors was analyzed by fluorescence activated cell sorting (FACS) analysis. […] When tumors reached 150-250 mm^3 in volume mice were separated into two groups. Eight mice from the treated group #1 received a single IP injection of Al647-pHLIP(Laa)-STINGa (300 µM 100 µl), and five mice from the control group #2 received single IP injection of vehicle (1% DMSO in PBS). 24 hours later all animals were euthanized, and tumors were collected for processing. Tumor stroma and immune cells were identified using the following markers:
• CD4 T cells: CD45^+, CD3^+, CD11b^-, CD4^+, CD8^- • CD8 T cells: CD45^+, CD3^+, CD11b^-, CD4^-, CD8^+ • Treg: CD45^+, CD3^+, CD11b^-, CD4^+, CD25^+, FoxP3^+ • mMDSC: CD45^+, CD3^-, CD11b^+, F4/80^-, Ly6C^high, Ly6G^- • gMDSC: CD45^+, CD3^-, CD11b^+, F4/80^-, Ly6C^low, Ly6G^+ • M1: CD45^+, CD11b^+, F4/80^+, CD206^- • M2: CD45^+, CD11b^+, F4/80^+, CD206^+ • DC: CD45^+, CD11b^+, CD11c^+, MHCII^+, F4/80^- • CAF: CD3^-, CD45^-, CD140b^+
The staining was performed for tumor samples, Fluorescence Minus One (FMO) controls and Single Color Controls (SCC) as indicated below:
The following anti-mouse antibodies were used: CD45-APC-Fire750 clone 30-F11, CD8a-BV650 clone 53-6.7, CD25-BV605 clone PC61, F4/80-PE-Dazzle-594 clone BM8, Ly-6C-FITC clone HK1.4, Ly-6G-BV785 clone 1A8, CD206-BV421 clone C068C2, CD140b-PE clone APB5, CD11c-BV711 clone N418, I-A/I-E-PE/Cy7 clone M5/114.15.2 from BioLegend; CD3e-BUV496 clone 145-2C11, CD4-BUV395 clone GK1.5; CD11b-BUV737 clone M1/70 from BD Biosciences, FoxP3 PerCP-Cy5.5 clone FJK-16s from Thermo Fisher and Live/Dead Aqua-V500 from Life Technologies. The procedure for tumor processing was the following: tumor samples were dissociated according to the manufacturer’s instructions using the gentleMACS™ protocol “Tumor Dissociation Kit”. Samples were filtered through a 70 µm cell strainer and rinsed twice in PBS/2.5% FBS buffer and total sample volumes were measured. Single cell suspensions were prepared in PBS pH 7.4 at 1x10^7 cells/mL and placed into individual wells of a 96-well plate and kept on ice. All incubation steps were carried out protected from light. The washing was performed by spinning the plate at 300x g (or 400x g) for 3 minutes and discarding the supernatant. Live/Dead reagent was added to each sample and incubated at 4°C for 15 minutes followed by washing. […]

human plasma proteins = assay: Binding to human plasma proteins (plasma stability study); format: in vitro ADME; details: for amount of product bound to plasma proteins (in brackets): single donor human plasma, 200 μM, 37°C, HPLC
Experimental: (§3) To establish the stability of pHLIP(Laa)-STINGa and pHLIP(Daa)-STINGa in plasma, pHLIP-STINGa was mixed with single donor human or BALB/c mouse plasma (Innovative Research) at a concentration of 200 μM, and kept in plasma for 0, 2, 4 or 24 hours at 37°C. Plasma proteins were precipitated by methanol (1:5 volume ratio of plasma to methanol) and centrifugated for 10 min at […]. The supernatant was collected and analyzed by HPLC using a Zorbax SB-C18 4.6 × 250 mm, 5 μm column with a gradient from 10% to 75% acetonitrile in water containing 0.05% TFA. Chromatograms were recorded at 220 nm, 280 nm and 320 nm. As controls pHLIP(Laa), pHLIP(Daa), Pys-PAB-STINGa, SH-PAB-STINGa, where Pys-PAB-STINGa was conjugated with a Cys residue, and diABZI (In vivogen) were analyzed for stability in plasma under the same conditions.

mouse plasma proteins = assay: Binding to mouse plasma proteins (plasma stability study); format: in vitro ADME; details: BALB/c mouse plasma, 200 μM, 37°C, HPLC
Experimental: as §3

[3] = Stability in mouse plasma; format: in vitro ADME
Experimental: as §3

[4] = Stability in human plasma; format: in vitro ADME
Experimental: as §3

[5] = STINGa on its own; ref [11]; cited from earlier work
CT26 tumors = assay: Treatment of small (100 mm^3) CT26 tumors in Balb/c mice; format: in vivo, mouse; details: single injection, same molar dose level as pHLIP-STINGa
Experimental: On day 1, when tumors reached size of 100 mm^3 (“small tumors”) or 400-700 mm^3 (“large tumors”), mice were randomized into groups, body weight was measured and agents including pHLIP(Laa)-STINGa, pHLIP(Daa)-STINGa, pHLIP(Laa), STINGa (diABZI) or vehicle were given as a single intraperitoneal (IP) or intravenous (IV) injection. Vehicle, pHLIP(Laa), STINGa (diABZI) and pHLIP(Laa)-STINGa were given as a single IP injection of 100 μM 300 µl. pHLIP(Daa)-STINGa was given as a single IV injection of 200 μM 150 μl. The compounds were dissolved in DMSO as a stock solution and transferred to 20% PEG400 in saline containing 0.9% sodium chloride (vehicle). The residual DMSO in the final solution injected into animals was less than 2%. Tumor volume and body weight were measured 3 times per week throughout the study. Measurements of tumors were performed using calipers, and the tumor volume (V) was calculated with the formula: […]
where L is the length and W is the width of the measured tumor. Mice were removed from the study and euthanized when the tumor volume was greater than 2000 mm^3.

Compound: AKDDQNPWRAYLDLLFPTDTLLLDLLWCG [ICG-pHLIP-STINGa]
- half-life in blood [1]: 8.2 h
- persistence of fluorescence signal in the tumor (CT26 tumor): 8 days

Compound: AKDDQNPWRAYLDLLFPTDTLLLDLLWCG [Al647-pHLIP-STINGa]
- % of cells taken Al647-pHLIP-STINGa: CAFs [2]: 74%
- % of cells taken Al647-pHLIP-STINGa: CD8 T-cells [2]: 24%
- % of cells taken Al647-pHLIP-STINGa: DCs [2]: 52%
- % of cells taken Al647-pHLIP-STINGa: TAMs (CD206+) [2]: 71%

Compound: CCn1nc(C)cc1C(=O)Nc1nc2cc(C(N)=O)cc(OC)c2n1C/C=C/Cn1c(NC(=O)c2cc(C)nn2CC)nc2cc(C(N)=O)cc(OCCC[N+]3(Cc4ccc(NC(=O)OCCSSC[C@@H](NC(=O)[C@@H](Cc5c[nH]c6ccccc56)NC(=O)[C@@H](CC(C)C)NC(=O)[C@@H](CC(C)C)NC(=O)[C@@H](CC(=O)O)NC(=O)[C@@H](CC(C)C)NC(=O)[C@@H](CC(C)C)NC(=O)[C@@H](CC(C)C)NC(=O)[C@H](NC(=O)[C@@H](CC(=O)O)NC(=O)[C@H](NC(=O)[C@H]5CCCN5C(=O)[C@@H](Cc5ccccc5)NC(=O)[C@@H](CC(C)C)NC(=O)[C@@H](CC(C)C)NC(=O)[C@@H](CC(=O)O)NC(=O)[C@@H](CC(C)C)NC(=O)[C@@H](Cc5ccc(O)cc5)NC(=O)[C@@H](C)NC(=O)[C@@H](CCCNC(=N)N)NC(=O)[C@@H](Cc5c[nH]c6ccccc56)NC(=O)[C@H]5CCCN5C(=O)[C@@H](CC(N)=O)NC(=O)[C@@H](CC(=O)O)NC(=O)[C@@H](CCC(N)=O)NC(=O)[C@@H](CC(=O)O)NC(=O)[C@@H](C)N)[C@H](C)O)[C@H](C)O)C(=O)NCC(=O)O)cc4)CCOCC3)c21 [pHLIP(Daa)-STINGa] (H-[dA][dD][dQ][dD][dN][dP][dW][dR][dA][dY][dL][dD][dL][dL][dF][dP][dT][dD][dT][dL][dL][dL][dD][dL][dL][dW][dC](X1)G-OH; N-terminus and C-terminus assumed)
- binding to plasma proteins, in words (human plasma proteins; compared with the Laa version, especially human plasma proteins): much stronger binding to plasma proteins than the Laa version
- amount of product bound to plasma proteins (in brackets) (human plasma proteins; 0 h): 0%
- amount of product bound to plasma proteins (in brackets) (human plasma proteins; 2 h): 77.2%
- amount of product bound to plasma proteins (in brackets) (human plasma proteins; 4 h): 84.4%
- amount of product bound to plasma proteins (in brackets) (human plasma proteins; 24 h): 87.7%
- amount of product bound to plasma proteins (in brackets) (mouse plasma proteins; 0 h): 0%
- amount of product bound to plasma proteins (in brackets) (mouse plasma proteins; 2 h): 51.7%
- amount of product bound to plasma proteins (in brackets) (mouse plasma proteins; 4 h): 59.6%
- amount of product bound to plasma proteins (in brackets) (mouse plasma proteins; 24 h): 75.9%
- amount of undegraded product (free fraction) ([3]; BALB/c mouse plasma, 200 μM, 37°C, 0 h, methanol precipitation, HPLC C18, UV 220/280/320 nm): 99.4%
- remaining at 2 h, 200 μM ([3]; BALB/c mouse plasma, 200 μM, 37°C, 2 h, methanol precipitation, HPLC C18, UV, read-out: amount of undegraded product (free fraction)): 90.9%
- remaining at 4 h, 200 μM ([3]; BALB/c mouse plasma, 200 μM, 37°C, 4 h, methanol precipitation, HPLC C18, UV, read-out: amount of undegraded product (free fraction)): 84.5%
- remaining at 24 h, 200 μM ([3]; BALB/c mouse plasma, 200 μM, 37°C, 24 h, methanol precipitation, HPLC C18, UV, read-out: amount of undegraded product (free fraction)): 58.2%
- modified STINGa released from pHLIP ([3]; incubated with mouse plasma, 37°C (text summary of Table S1)): about 40%
- metabolised at 24 h, 200 μM ([4]; human plasma, over 24 hours, 37°C (text summary of Table S1), read-out: degradation): ~10%
- amount of undegraded product (free fraction) ([4]; single donor human plasma, 200 μM, 37°C, 0 h, methanol precipitation, HPLC C18, UV): 99.4%
- remaining at 2 h, 200 μM ([4]; single donor human plasma, 200 μM, 37°C, 2 h, methanol precipitation, HPLC C18, UV, read-out: amount of undegraded product (free fraction)): 99.2%
- remaining at 4 h, 200 μM ([4]; single donor human plasma, 200 μM, 37°C, 4 h, methanol precipitation, HPLC C18, UV, read-out: amount of undegraded product (free fraction)): 97.6%
- remaining at 24 h, 200 μM ([4]; single donor human plasma, 200 μM, 37°C, 24 h, methanol precipitation, HPLC C18, UV, read-out: amount of undegraded product (free fraction)): 89.6%

Compound: diABZI [STINGa]
- half-life [5]: 1.4 h
- time by which all animals developed tumors (CT26 tumors): ≤ 35 days p.i.
